Measured values: publication PMC2857095

Substrate: Nc1ncnc2c1ncn2[C@@H]1O[C@H](COP(=O)(O)OP(=O)(O)OP(=O)(O)O)[C@@H](O)[C@H]1O
Assay: purified protein
Conditions: no DNA, 100 mM MgCl2

Protein | Km (low affinity site) | kcat (low affinity site) | Km (kcat unit not printed beside value)
MutS (Escherichia coli K-12) (protein) MSAIENFDAHTPMMQQYLRLKAQHPEILLFYRMGDFYELFYDDAKRASQLLDISLTKRGASAGEPIPMAGIPYHAVENYLAKLVNQGESVAICEQIGDPATSKGPVERKVVRIVTPGTISDEALLQERQDNLLAAIWQDSKGFGYATLDISSGRFRLSEPADRETMAAELQRTNPAELLYAEDFAEMSLIEGRRGLRRRPLWEFEIDTARQQLNLQFGTRDLVGFGVENAPRGLCAAGCLLQYAKDTQRTTLPHIRSITMEREQDSIIMDAATRRNLEITQNLAGGAENTLASVLDCTVTPMGSRMLKRWLHMPVRDTRVLLERQQTIGALQDFTAGLQPVLRQVGDLERILARLALRTARPRDLARMRHAFQQLPELRAQLETVDSAPVQALREKMGEFAELRDLLERAIIDTPPVLVRDGGVIASGYNEELDEWRALADGATDYLERLEVRERERTGLDTLKVGFNAVHGYYIQISRGQSHLAPINYMRRQTLKNAERYIIPELKEYEDKVLTSKGKALALEKQLYEELFDLLLPHLEALQQSASALAELDVLVNLAERAYTLNYTCPTFIDKPGIRITEGRHPVVEQVLNEPFIANPLNLSPQRRMLIITGPNMGGKSTYMRQTALIALMAYIGSYVPAQKVEIGPIDRIFTRVGAADDLASGRSTFMVEMTETANILHNATEYSLVLMDEIGRGTSTYDGLSLAWACAENLANKIKALTLFATHYFELTQLPEKMEGVANVHLDALEHGDTIAFMHSVQDGAASKSYGLAVAALAGVPKEVIKRARQKLRELESISPNAAATQVDGTQMSLLSVPEETSPAVEALENLDPDSLTPRQALEWIYRLKSLV | 6.8 ± 0.6 µM | 0.0317 ± 0.00067 s⁻¹ | 
MutS (Escherichia coli K-12; D693N) (protein) MSAIENFDAHTPMMQQYLRLKAQHPEILLFYRMGDFYELFYDDAKRASQLLDISLTKRGASAGEPIPMAGIPYHAVENYLAKLVNQGESVAICEQIGDPATSKGPVERKVVRIVTPGTISDEALLQERQDNLLAAIWQDSKGFGYATLDISSGRFRLSEPADRETMAAELQRTNPAELLYAEDFAEMSLIEGRRGLRRRPLWEFEIDTARQQLNLQFGTRDLVGFGVENAPRGLCAAGCLLQYAKDTQRTTLPHIRSITMEREQDSIIMDAATRRNLEITQNLAGGAENTLASVLDCTVTPMGSRMLKRWLHMPVRDTRVLLERQQTIGALQDFTAGLQPVLRQVGDLERILARLALRTARPRDLARMRHAFQQLPELRAQLETVDSAPVQALREKMGEFAELRDLLERAIIDTPPVLVRDGGVIASGYNEELDEWRALADGATDYLERLEVRERERTGLDTLKVGFNAVHGYYIQISRGQSHLAPINYMRRQTLKNAERYIIPELKEYEDKVLTSKGKALALEKQLYEELFDLLLPHLEALQQSASALAELDVLVNLAERAYTLNYTCPTFIDKPGIRITEGRHPVVEQVLNEPFIANPLNLSPQRRMLIITGPNMGGKSTYMRQTALIALMAYIGSYVPAQKVEIGPIDRIFTRVGAADDLASGRSTFMVEMTETANILHNATEYSLVLMNEIGRGTSTYDGLSLAWACAENLANKIKALTLFATHYFELTQLPEKMEGVANVHLDALEHGDTIAFMHSVQDGAASKSYGLAVAALAGVPKEVIKRARQKLRELESISPNAAATQVDGTQMSLLSVPEETSPAVEALENLDPDSLTPRQALEWIYRLKSLV |  |  | 34 µM
